# From article PMC12957837, “Crotonylation driving Streptococcus pneumoniae adaption and virulence” (Journal of Advanced Research, 2025)
# Substitutions are numbered along the chain they refer to. In names and notes the source's numbering stands.
# B1: pneumolysin (PLY), wild type (natural protein, Streptococcus pneumoniae D39, UniProt Q04IN8 1-471, looked up)
# chain: MANKAVNDFILAMNYDKKKLLTHQGESIENRFIKEGNQLPDEFVVIERKKRSLSTNTSDISVTATNDSRLYPGALLVVDETLLENNPTLLAVDRAPMTYSIDLPGLASSDSFLQVEDPSNSSVRGAVNDLLAKWHQDYGQVNNVPARMQYEKITAHSMEQLKVKFGSDFEKTGNSLDIDFNSVHSGEKQIQIVNFKQIYYTVSVDAVKNPGDVFQDTVTVEDLKQRGISAERPLVYISSVAYGRQVYLKLETTSKSDEVEAAFEALIKGVKVAPQTEWKQILDNTEVKAVILGGDPSSGARVVTGKVDMVEDLIQEGSRFTADHPGLPISYTTSFLRDNVVATFQNSTDYVETKVTAYRNGDLLLDHSGAYVAQYYITWDELSYDHQGKEVLTPKAWDRNGQDLTAHFTTSIPLKGNVRNLSVKIRECTGLAWEWWRTVYEKTDLPLVRKRTISIWGTTLYPQVEDKVEND
# notes: pneumolysin (PLY) of Streptococcus pneumoniae serotype 2 strain D39; also called wild-type PLY; WT PLY
# B2: pneumolysin (PLY) K442R (natural protein, Streptococcus pneumoniae D39, UniProt Q04IN8 1-471, looked up)
# chain: B1 chain with K442R
# notes: pneumolysin (PLY) of Streptococcus pneumoniae serotype 2 strain D39 with K442R
# B3: crotonylated pneumolysin (PLY incubated with crotonyl-CoA) (natural protein, Streptococcus pneumoniae D39, UniProt Q04IN8 1-471, looked up)
# chain: B1 chain
# modifications: lysine crotonylation (Kcr); K171 and K442 are the Kcr sites the paper names
# notes: pneumolysin (PLY) of Streptococcus pneumoniae serotype 2 strain D39; also called crotonylated PLY; source: E. coli BL21 (λDE3), purified, then incubated with 125 µM crotonyl-CoA at 25 °C for 16 h
# B4: pneumolysin (PLY) K171R (natural protein, Streptococcus pneumoniae D39, UniProt Q04IN8 1-471, looked up)
# chain: B1 chain with K171R
# notes: pneumolysin (PLY) of Streptococcus pneumoniae serotype 2 strain D39 with K171R
# B5: pneumolysin (PLY) K164R (natural protein, Streptococcus pneumoniae D39, UniProt Q04IN8 1-471, looked up)
# chain: B1 chain with K164R
# notes: pneumolysin (PLY) of Streptococcus pneumoniae serotype 2 strain D39 with K164R
# What was measured:
# SPD_0839 = SPD_0839 (Streptococcus pneumoniae, UniProt A0A0H2ZP99); test: isothermal titration calorimetry; format: binding
# Sequence of SPD_0839 (A0A0H2ZP99 entry or part of it): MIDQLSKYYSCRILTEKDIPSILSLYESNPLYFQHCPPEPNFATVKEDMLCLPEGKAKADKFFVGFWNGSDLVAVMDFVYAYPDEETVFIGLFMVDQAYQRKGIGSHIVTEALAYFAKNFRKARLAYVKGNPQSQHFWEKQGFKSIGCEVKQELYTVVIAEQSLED
# [1] = target: the molecule itself; test: nanoparticle tracking analysis; NanoSight NS300, samples diluted with PBS, 25 °C; particle concentration of PLY and its mutants
# [2] = target: the molecule itself; test: SDS-PAGE without β-mercaptoethanol + Western blot; 1 µg Ply or mutant incubated with 125 µM crotonyl-CoA at 25 °C for 16 h; SDS loading buffer without β-mercaptoethanol, 55 °C for 10 min; 6 % SDS-PAGE; anti-Ply Western blot
# [3] = target: the molecule itself; test: native gel or EMSA; native gel of purified PLY and its mutants; oligomeric and monomeric forms marked by arrows
molecule,measurement,setting,value
CC(=O)SCCNC(=O)CCNC(=O)[C@H](O)C(C)(C)COP(=O)(O)OP(=O)(O)OC[C@H]1O[C@@H](n2cnc3c(N)ncnc32)[C@H](O)[C@@H]1OP(=O)(O)O [AcCoA],Kd,SPD_0839,10.4 µM
C/C=C/C(=O)SCCNC(=O)CCNC(=O)[C@H](O)C(C)(C)COP(=O)(O)OP(=O)(O)OC[C@H]1O[C@@H](n2cnc3c(N)ncnc32)[C@H](O)[C@@H]1OP(=O)(O)O [CrCoA],Kd,SPD_0839,1 µM
B1,binding result,[1],binds
B2,binding result,[1],binds
B3,binding result,[2],binds
B4,binding result,[1],binds
B5,binding result,[3],binds
